This is an account of results in patent US20210140973A1.

Where only a bound is given, the exact number is not on record here.

The target in assay [1] is human IgG4 purified from human serum (human). Briefly: latex agglutination inhibition, IgG4-sensitized latex, antibody in R1; free human IgG4 in sample 1000 mg/dL.
Assay [2] has the same target. Kind of assay: latex agglutination inhibition, IgG4-sensitized latex, antibody in R1; free human IgG4 in sample 0.0 mg/dL.
For assay [3] the target is unchanged. Briefly: latex agglutination inhibition, IgG4-sensitized latex, antibody in R1; free human IgG4 in sample 250 mg/dL.
For assay [4] the target is unchanged. Briefly: SPR (Biacore), IgG4 immobilized on chip by amino coupling, antibody as analyte. Background: Surface plasmon resonance follows binding to a sensor surface in real time, without labels.
For assay [5] the target is unchanged. Briefly: SPR (Biacore), IgG4 immobilized.
Assay [6] shares this target. Briefly: latex agglutination inhibition, IgG4-sensitized latex, antibody in R1; free human IgG4 in sample 31.3 mg/dL.
Assay [7] shares this target. Briefly: latex agglutination inhibition, IgG4-sensitized latex, antibody in R1; free human IgG4 in sample 125 mg/dL.
For assay [8] the target is unchanged. Kind of assay: latex agglutination inhibition, IgG4-sensitized latex, antibody in R1; free human IgG4 in sample 500 mg/dL.

By Kd is commonly meant the equilibrium constant for the complex coming apart. A higher Kd goes with weaker binding. As a reminder, the koff is the first-order rate constant of dissociation. A high value points to fast dissociation. Usually kon stands for the rate constant with which the complex forms. High values mean faster complex formation, low ones slower complex formation.

human IgG4 purified from human serum (human), sequence (constant, as listed by the source limits assumed): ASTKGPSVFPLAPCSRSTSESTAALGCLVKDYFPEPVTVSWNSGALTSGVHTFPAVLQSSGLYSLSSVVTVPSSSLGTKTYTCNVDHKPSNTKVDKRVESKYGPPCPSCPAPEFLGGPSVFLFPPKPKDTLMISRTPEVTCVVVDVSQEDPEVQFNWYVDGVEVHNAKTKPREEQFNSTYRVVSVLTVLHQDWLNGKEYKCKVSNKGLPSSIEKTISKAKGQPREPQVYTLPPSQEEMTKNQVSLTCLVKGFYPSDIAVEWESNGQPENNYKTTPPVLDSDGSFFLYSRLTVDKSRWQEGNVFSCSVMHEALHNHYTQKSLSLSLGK

“commercially available antibody HP6025 (Millipore Corporation)”: the Absorbance change amount in 800 nm in assay [1] was 0.003; in assay [2] it was 0.003; in assay [3], 0.0034; in assay [6] it was 0.0036; in assay [7], 0.0033; in assay [8], 0.0031. This substance had a Kd in assay [4] of 408 nM. For the same substance, in assay [4], the koff was found to be 0.000681 s⁻¹. For the same substance, the association rate constant (kon) in assay [4] is 1670 M⁻¹ s⁻¹. Besides, in assay [5], the ratio of binding rate constant ka to those of the MaI4-08 and MaI4-09-produced antibodies is under 0.01 fold.
